Test: soluble on expression in E. coli; label from the status in PepcDB or PDB records

Sequence | soluble on expression in E. coli
MSLAAPVHAAPLAATASKFLGCAYGAQQAPGFAQYWNKLTPENGGKWGSVEAVRDQMDWSTLDAAYRFAQANQMPFQMHVMVWGNQQPEWIKTLRPAEQRREIEQWFAAVAQRYPDIALLEVVNEPLNDPPSKADTGGGNYLQALGGNGDSGWEWVLQSFRLARRHFPHTKLMINDYSITSSAQATQKYLQIVRLLQRENLVDAIGVQEHAFETTPEVAVSVHRDNLDALAATGLPIYITEFDLDGPTDAQQLADYKRVFPVFWEHPAVHGITLWGFRPGLWRDKEAAYLIRADGTERPALTWLRDYVAAHPGTEGHHHHHH | soluble
MGKMNHQDELPLAKVSEVDEAKRQWLQGMRHPVDTVTEPEPAEILAEFIRQHSAAGQLVARAVFLSPPYLVAEEELSVLLESIKQNGDYADIACLTGSKDDYYYSTQAMSENYAAMSLQVVEQDICRAIAHAVRFECQTYPRPYKVAMLMQAPYYFQEAQIEAAIAAMDVAPEYADIRQVESSTAVLYLFSERFMTYGKAYGLCEWFEVEQFQNP | soluble
MGSDKIHHHHHHLIPFFLDLVSRTDEARRAFELHPVVTHAAANGMTLQRYRRLLLELYHVVWHFNTVSAAGASRLQDTHKQVRYFLYEHMHEESGHEEWVLADLEQMGVTRDIALNHRPSHYTLALVGYYYYAADRKHPASVLGMLYALEVIASVYGGTLTSAVKESLLLDDERGVSFISSHATLDAEHMADLKTVLDTIEDDEAKDAIEEAVLLTFNHLTHIMVEAHLEEGDISGAPAVNAEHFAISAEKAAA | not soluble
MGSDKIHHHHHHQAIAPAPADPAAALMPSPWSGSSGELGYASAHGNSTTDSLNGRIRLRYTDGDWIHSLDATALRSSSEYTNTNDDGSVTRERQTTAERYTGSAGSALQLGEHRQLTATGRYEHDDFATYDRLATFGIGYGTRLIDADRFYLDAQIGPGIRRAHNSDDDRNETGLIGRGLFDLKYTVTDNTDLINTLLVESGEYNTYAQNDFGVQVSMNSHFALKAAWQMRHNSDVSEGDKKTDTLTTVNLVYTFK | not soluble
MKKIPLGTTDITLSRMGLGTWAIGGGPAWNGDLDRQICIDTILEAHRCGINLIDTAPGYNFGNSEVIVGQALKKLPREQVVVETKCGIVWERKGSLFNKVGDRQLYKNLSPESIREEVAASLQRLGIDYIDIYMTHWQSVPPFFTPIAETVAVLNELKSEGKIRAIGAANVDADHIREYLQYGELDIIQAKYSILDRAMENELLPLCRDNGIVVQVYSPLEQGLLTGTITRDYVPGGARANKVWFQRENMLKVIDMLEQWQPLCARYQCTIPTLALAWILKQSDLISILSGATAPEQVRENVAALNINLSDADATLMREMAEALER | soluble
MRRKMIMKIIQITDTHLLPPGIAINGVDPENQLRAAVADIVEKHADADLLVMTGDLCNYGEPEAYELLRDILAPVSIPTRLMLGNHDRRPEFVAAFPEQPRDDNGYIQSFIDTEFGRLLFLDSHEADVIGGIYGADRLTWLENALESAGDLPITVFVHHPPMDCGIRHFEHIGMHDDGAIMRRLAAHPAGIRHIVFGHIHVPMAGTTAEGIAYSSGQACAHRFITDIDVVDPLWTGGNPCYRVISLGAFGLRAYDAEVGQPVLGQTPVCEGP | not soluble
MAHHHHHHMEAKLSSALRTCDKCRTYADLCRTFEAKVSPIVEQALQSPLVKAPRDHTTPDECSPRVAELREALCTRLGADKATPAEDDVWFLIYRTVSNFVERQQRKRSRDQDGTSLSTLVTNCFVLLCTRTLPQLDHMKLRWGFLKKERAALESSDAYVHSNASERRKLQLNATSVLSVFSERAHKHSFTFVWMLCVEKAGEAALHVHLLHRVGSVVLPYLTNPLVLADYLTGCFSSGGIISILSLQGLFLLMLDHGLEYPNYYEQLYSLLTPDVFASRYRYELFRLLDLSMTSLRVPSYIAASVIKRVAQVSLMAPAPTLYFSLPFLRKVLQSHPNCLALIHRSSREAVIPDDMADQDTDTVTAQSAKAQAMRDTAALFDGRDPFDDRAKLLETHALSSTLWELTALERHFMPVVPLMVSAFSSTAEDKTPLRYEKSYGRLFTAEVTRAIDCHNLPTIAYEAPSEADPTDLLSL | soluble
SEEAGSVALEELVEKEKDRFFSGVDYIVISDNLWISQRKPAITYGTRGNSYFMVEVKCRDQDFHSGTFGGILHEPMADLVALLGSLVDSSGHILVPGIYDEVVPLTEEEINTYKAIHLDLEEYRNSSRVEKFLFDTKEEILMHLWRYPSLSIHGIEGAFDEPGTKTVIPGRVIGKFSIRLVPHMNVSAVEKQVTRHLEDVFSKRNSSNKMVVSMTLGLHPWIANIDDTQYLAAKRAIRTVFGTEPDMIRDGSTIPIAKMFQEIVHKSVVLIPLGAVDDGEHSQNEKINRWNYIEGTKLFAAFFLEMAQLH | soluble
MKVDGIQAEMRAMMVEATNTTPTGTGAKVGADFNDLLTKAINNVNSLQKSSGDLQTRFDRGDADVSLSDVMIARNKSSVAFEATVQIRNKLVEAYKDLMNMPV | not soluble
MSNLPFHQFCGTEGYVASRALQDVVNVAIALERPLLLKGEPGTGKTLLAYHIAKALGMEIILWNVKSTTKARDGLYTYDTVQRLNDARFGDGDVRDIRHYIKLGPLGRAFGSAERVVLLIDEVDKADIEFPNDLLFELDEMRFHVLETDEWVSAAHRPVVIVTSNSEKELPDAFLRRCVFHYIDFPDETQMRAIIDVHFPDLPAELMRSACKVFYGLREVPGLRKRPSTSELLDWIRVLLASGARLPEEETPALQSVPFLGALVKIQEDADILAHHASRSADVRTAGRRFFRLEHHHHHH | not soluble
MIPTATYRLQFRNGMTFDRAAALVPYLKNLGISHLYASPIFTATKASTHGYDVTDANEIEPSIGGREGFERLVAELKAQGLGLIIDIVPNHMASSLENAWWRDVLEYGKESRYARHFDIDWSRRLTLPFLGDTFDAVLENGEIAIKPDPATGKPAFAYYDNYYPLAPATWQGREAEILALTDKAAIADLHERQPWKLMSWRDAARSLSYRRFFEVTGLVGMRVEDKTVFDDTHRLILELVRTGAVDGLRIDHIDGLADPKAYLARLRQEVGPACYITVEKILAKGEQLPDDWPVSGTTGYEFIASLAEVLVDDEQIDNLRQAYETVKGAPVDMRAELRAAKLLMVDRNFEGEFTRLLALALSIASELQIAQEESVVRQALRELLIAFPVYRTYGTAEGLPPTDICLLHRIVERVKTLETPPQPEALTFLSRLLTGDVPASSQEEATQFRVRFQQLTGPLMAKSVEDTLFFRQNMGLALNEVGAEPVTHHFSIERFHHEMKTRQARQPDALSGTSTHDTKRGEDARARLYTLTEAPEQWSECLARWRQMNQTHVKFLNDGTAPKSADTWMLYQALTGVWPPVLQPQDETGLNALKTRFEAFVEKALREAKLRTDWVDSNEAYETAMLDYARYLLAPDNQTFLQDFYRSLQPFIRAGLVNSLTQTVIKLTAPGVPDIYQGSEALNFSLVDPDNRREPDFATLAQQLDQLTPGVFSREESWLNGQVNQYVTAALLRLRQQNHELFRFGDYIPLRAVGQRADKVIAYARVNHDDALIVVAPRLVFAECDGLLSQSHSGFWSGTDIIIPGQLNQHRYRNVLTQERLMPGERLSLASHQGGVLVLMSD | not soluble
MMAFAPPKNTDGPKMQTKMSTWTPLNHQLLNDRVFEERRALLGKWFDKWTDSQRRRILTGLLERCSLSQQKFCCRKLQEKIPAEALDFTTKLPRVLSLYIFSFLDPRSLCRCAQVCWHWKNLAELDQLWMLKCLRFNWYINFSPTPFEQGIWKKHYIQMVKELHITKPKTPPKDGFVIADVQLVTSNSPEEKQSPLSAFRSSSSLRKKNNSGEKALPPWRSSDKHPTDIIRFNYLDNRDPMETVQQGRRKRNQMTPDFSRQSHDKKNKLQDRTRLRKAQSMMSRRNPFPLCP | not soluble
VIHVTKEVKEVATLSCGHNVSVEELAQTRIYWQKEKKMVLTMMSGDMNIWPEYKNRTIFDITNNLSIVILALRPSDEGTYECVVLKYEKDAFKREHLAEVTLSVKADFPTPSISDFEIPTSNIRRIICSTSGGFPEPHLSWLENGEELNAINTTVSQDPETELYAVSSKLDFNMTTNHSFMCLIKYGHLRVNQTFNWNTAK | soluble
MIFMFRKVLFPTDFSEGAYRAVEVFEKRNKMEVGEVILLHVIDEGTLEELMDGYSFFYDNAEIELKDIKEKLKEEASRKLQEKAEEVKRAFRAKNVRTIIRFGIPWDEIVKVAEEENVSLIILPSRGKLSLSHEFLGSTVMRVLRKTKKPVLIIKEVDENELAKTKGTSG | soluble
MSLRSSFRVGVTEDRNKKCRRTMEDTHAYLYNFLGNPVPSAQNDDSDQSSHPSDASPKTGELTPIVETDNGYFAIFDGHAGTFAAQWCGKKLHLILEDVMRKNINAPVPELLDQTFTSVDQQLEKLPVKNSGCTAVVALLRWEDRIPTPSSVTGSSAIGPAAVAATKAGADSKADDTPTQEAAATPVPAIPPKLREKAIRQRVLYTANVGDARVILCRNGKALRLSYDHKGSDENEGRRIANAGGLIMNNRVNGVLAVTRALGDAYIKDLVTGHPYTTETVIQPDLDEFIILASDGLWDVCSDQEAVDLIRNVSDAQEASKILVDHALARFSTDNLSCMVIRLYADREGHHHHHH | soluble
MSRVYTLLTGLLLSLIALSLQAAQLTASVDRTRLNAGETVELTLETDDVTQFGKPDMSSLEASFEVRDTRQLNSLKTLDGSSQATTRWIVTLLPRETGSVIIPSLQLGELKSQPLTLQVMQSETKEPTSHLASIFIEASLDQDSVYVQAQAVLTLRVYHSVSLFDDSSLN | not soluble
MLNLFRNRKRNGAGPTIKKAQKMPELDDFLSNQDYEGAISLLNHKLKAGNLDREEEDSLQLWLAHCYYRLRNYEEAANVYTFLMNKDDAPAELGVYLACCKFYLKQYIEAKSIAEKCPKTPLCIRLMMNVSLRLNDEKRILTFHSSLGDTLEDRLSLAGVNYSRMHYQDAIEVYTSVLQTSPNLIGLNVNMALCYAKMDYPHVAYNLIKNYLRNFPNSPFAKNLLLSVLYRTITSKTTVDEKSELARNIDQEGLTMVSDMEALLKQKLYPEIEYICKHNLVLFKNCETALQVLPSLMKHIPEARVNLILYHLNKNNVKDAISLCKDFDPVTPYEFLVKALTFLRHGQETNSREHLKIAENFFQMVGESGLVQDTIAGRQSSAAYLFLSFKFDDVITYLKSIEAYFTNNDDFLLNLAQAYLMYKNYVAAEKLFIRVSGPERDKILYKSMLARCYVRNKKPQSAWDMMLKTNNPSDRMSLLKVIAQDCYIANEFYYASKAFHEIEISDPTTENWSGKRGACAGLFRQLANHKTDPILISQMREVVHLVAMKPHSNCEFLLKVVRNWAETHNVNIIN | not soluble
MLPLIRKMKPTDAAALTIINKEQLGYEVPVDVTCKQIEKLLLASDREFLYVYEETKTGKILGYVHAQLYETIYSQTLLNVLGLAVAKEAEGRGIGKQLMTKLETEAKKCNLSAIRLNSGEQRTAAHQFYEHIGYVSDKKQKRFIKYLDT | not soluble
MAHHHHHHMTTAGQSDAFTRVSLHSVTALGKCPAPFSDPIAVKVVLEVFGCPPKHSIDVKFTWKPIWDFPVDQVLDEFEVGPLATVGKHELVLHSDPPDVAKIPDPTGPTALTIAFTYRGKQFLHIGYNAVVLCEGEMPDVFEDAAMLSRQLTQCFKKETTIAWDEDHEDVEEKTVINGKDNDISDVKEKDHNGHAAYDDEAKVPEGVSPTKKKARCEGSLSQ | soluble
MAVLKIISWNVNGLRAVHRKGFLKWFMEEKPDILCLQEIKAAPEQLPRKLRHVEGYRSFFTPAERKGYSGVAMYTKVPPSSLREGFGVERFDTEGRIQIADFDDFLLYNIYFPNGKMSEERLKYKLEFYDAFLEDVNRERDSGRNVIICGNFNTAHREIDLARPKENSNVSGFLPVERAWIDKFIENGYVDTFRMFNSDPGQYTWWSYRTRARERNVGWRLDYFFVNEEFKGKVKRSWILSDVMGSDHCPIGLEIELLEHHHHHH | soluble
